Here are results for one substance from US20130190228A1.

The target of this assay is hemagglutinin (HA) of A/PuertoRico/8/34 (PR/8, H1N1) influenza virus (influenza A virus A/PuertoRico/8/34 (H1N1)) (UniProt P03452). The experiment in a line: cell-based or functional assay.

For the substance EB peptide (entry blocker), the EC50 of hemagglutination inhibition (PR/8) was found to be 2 µM; the EC50 of hemagglutination inhibition (PR/8, 64 HAU) is 2.6 µM; the plaque reduction on MDCK cells (PR/8 pre-treated with peptide) was determined as 92%.
